# Results as given in US20260049103A1, “PEPTIDE, AND COMPOSITION THEREOF AND USE THEREOF” (WINKEY TECHNOLOGY USA INC, priority 2023, published 2026).
# B1: EGF: positive control group: 50 U/mL of EGF in the cell scratch assay (protein, UniProt P01133 23-1207, looked up)
# Pro-epidermal growth factor: PQHWSCPEGTLAGNGNSTCVGPAPFLIFSHGNSIFRIDTEGTNYEQLVVDAGVSVIMDFHYNEKRIYWVDLERQLLQRVFLNGSRQERVCNIEKNVSGMAINWINEEVIWSNQQEGIITVTDMKGNNSHILLSALKYPANVAVDPVERFIFWSSEVAGSLYRADLDGVGVKALLETSEKITAVSLDVLDKRLFWIQYNREGSNSLICSCDYDGGSVHISKHPTQHNLFAMSLFGDRIFYSTWKMKTIWIANKHTGKDMVRINLHSSFVPLGELKVVHPLAQPKAEDDTWEPEQKLCKLRKGNCSSTVCGQDLQSHLCMCAEGYALSRDRKYCEDVNECAFWNHGCTLGCKNTPGSYYCTCPVGFVLLPDGKRCHQLVSCPRNVSECSHDCVLTSEGPLCFCPEGSVLERDGKTCSGCSSPDNGGCSQLCVPLSPVSWECDCFPGYDLQLDEKSCAASGPQPFLLFANSQDIRHMHFDGTDYGTLLSQQMGMVYALDHDPVENKIYFAHTALKWIERANMDGSQRERLIEEGVDVPEGLAVDWIGRRFYWTDRGKSLIGRSDLNGKRSKIITKENISQPRGIAVHPMAKRLFWTDTGINPRIESSSLQGLGRLVIASSDLIWPSGITIDFLTDKLYWCDAKQSVIEMANLDGSKRRRLTQNDVGHPFAVAVFEDYVWFSDWAMPSVMRVNKRTGKDRVRLQGSMLKPSSLVVVHPLAKPGADPCLYQNGGCEHICKKRLGTAWCSCREGFMKASDGKTCLALDGHQLLAGGEVDLKNQVTPLDILSKTRVSEDNITESQHMLVAEIMVSDQDDCAPVGCSMYARCISEGEDATCQCLKGFAGDGKLCSDIDECEMGVPVCPPASSKCINTEGGYVCRCSEGYQGDGIHCLDIDECQLGEHSCGENASCTNTEGGYTCMCAGRLSEPGLICPDSTPPPHLREDDHHYSVRNSDSECPLSHDGYCLHDGVCMYIEALDKYACNCVVGYIGERCQYRDLKWWELRHAGHGQQQKVIVVAVCVVVLVMLLLLSLWGAHYYRTQKLLSKNPKNPYEESSRDVRSRRPADTEDGMSSCPQPWFVVIKEHQDLKNGGQPVAGEDGQAADGSMQPTSWRQEPQLCGMGTEQGCWIPVSSDKGSCPQVMERSFHMPSYGTQTLEGGVEKPHSLLSANPLWQQRALDPPHQMELTQ
# modifications: Pro-epidermal growth factor
# notes: positive control group: 50 U/mL of EGF in the cell scratch assay
# Test system: Human keratinocytes (HaCaT)
# Experiment: Cell scratch assay
# Format: cell-based
# Conditions: 24 h after scratch, peptides 12.5 ppm, EGF 50 U/mL, compared with blank control, FIG. 8
# Procedure: Human keratinocytes (HaCaT) were purchased from the Kunming Cell Bank of China Center for Type Culture Collection under the Chinese Academy of Sciences.
# Polypeptide group: Peptide (13) and peptide (20). The test concentrations of all the above samples were 12.5 ppm.
# Blank control group: PBS.
# Positive control group: 50 U/mL of EGF.
# A bottle of HaCaT cells in good exponential growth phase was taken. A 0.25% trypsin digestion solution was added so that digestion allowed the adherent cells to fall off, counting 1 to 4×10^5 cells/mL, which were prepared into a cell suspension.
# The cells were inoculated into a 24-well plate at a density of 150,000 cells/well, with 2 mL cell suspension per well. After the cells attached to the wall and grew to 100% confluence, the culture medium was replaced with a medium containing 0.5%-1% fetal bovine serum to maintain the cells for 24 h for synchronization. A sterilized pipette tip was used to scratch a wound, the detached cells were washed off with PBS, and the samples to be tested were added. The incubation was continued in the 5% CO2 incubator at 37° C., and the migration of cells was observed under an optical microscope after 24 h.
# The scratch migration experiment of cells can reflect the proliferation and repair ability of cells. […]
molecule,measurement,value
B1,cell proliferation and migration (scratch spacing),obvious cell proliferation and migration
